Source: PMC6939381

Molecular target: CohE-CBM(C63S)-ybbR (Ruminococcus flavefaciens)
Test: ITC

“ybbR-CBM(C63S)-ScaB-XDoc (domain or fragment)” showed a Kd of 149 nM.
